Data from US20210145944.

Assays:
Tau-441 (P301L) = Tau-441 (P301L) (UniProt P10636)
Tau-441 (P301L), sequence (P10636 other isoform, or with tags, fused parts or gaps P301L): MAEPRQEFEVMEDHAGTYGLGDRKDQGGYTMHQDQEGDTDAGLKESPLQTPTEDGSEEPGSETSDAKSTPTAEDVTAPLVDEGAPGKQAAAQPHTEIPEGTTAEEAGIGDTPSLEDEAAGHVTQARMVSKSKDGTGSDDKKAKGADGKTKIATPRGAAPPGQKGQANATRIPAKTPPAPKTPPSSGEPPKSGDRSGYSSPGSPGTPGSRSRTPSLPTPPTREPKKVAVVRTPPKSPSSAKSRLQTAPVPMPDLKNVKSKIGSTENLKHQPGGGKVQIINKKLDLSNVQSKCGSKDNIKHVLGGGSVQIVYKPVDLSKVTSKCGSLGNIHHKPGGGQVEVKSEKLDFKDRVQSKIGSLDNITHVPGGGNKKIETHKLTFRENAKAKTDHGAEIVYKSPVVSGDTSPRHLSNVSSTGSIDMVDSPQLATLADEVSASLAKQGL

B1: cathepsin G (enzyme, UniProt P08311 21-244, looked up, species assumed)
Cathepsin G: IIGGRESRPHSRPYMAYLQIQSPAGQSRCGGFLVREDFVLTAAHCWGSNINVTLGAHNIQRRENTQQHITARRAIRHPQYNQRTIQNDIMLLQLSRRVRRNRNVNPVALPRAQEGLRPGTLCTVAGWGRVSMRRGTDTLREVQLRVQRDRQCLRIFGSYDPRRQICVGDRRERKAAFKGDSGGPLLCNNVAHGIVSYGKSSGVPPEVFTRVSSFLPWIRTTMRS
modifications: immobilized
B1 was tested, and the “casein digestion by resin-immobilized protease, fluorescence (RFU) at 5 and 60 min” value (Bodipy-labelled casein) was “bar at 5 min about 2.3x10^7 RFU, bar at 60 min about 5.3x10^7 RFU; highest of the three groups; no control bar drawn”, the “casein digestion, fluorescence (RFU) of Bodipy-labelled casein after 1 h against protease concentration in solution” value (Bodipy-labelled casein) was “near 0 up to about 0.1 ug/ml, rises to about 3.4x10^7 RFU; the last two points (about 50 and 100 ug/ml) are at the same height” and the “casein-digestion activity, immobilized protease, fluorescence” value (Bodipy-labelled casein) was “exhibited casein-digestion activity at 5 minute and 60 minute incubation times”. The “casein-digestion activity, protease in solution, fluorescence” value (Bodipy-labelled casein) was “exhibited casein-digestion activity having linear reaction kinetics up to approximately 6 µg/ml of each protease”, the “digestion on immobilized protease column, SDS-PAGE silver stain (FIG. 3A)” value (Tau-441 (P301L)) was “rapidly degraded” and the “loss of the Tau-441 (P301L) band on a silver-stained SDS-PAGE gel after incubation on the protease column” value (Tau-441 (P301L)) was “no band in the Cathepsin G column lanes at 2, 10 and 20 min; the No protease column lanes show a strong band of equal strength at 2, 10 and 20 min”.
